Experimental findings from patent US8784821 (Amgen, dated 2014) are described below.

In one experiment the target is T1, BSA (blocking agent) (UniProt P02769 25-607).
T1 construct: Specificity control of the ELISA
The experiment is described as follows: ELISA on uncoated plates blocked with PBS 3% BSA, periplasmic preparation. The protocol: (§1) FIG. 15: ELISA-analysis of periplasmic preparations containing Flag-tagged scFv protein fragments from selected clones. […] Detection was performed by a monoclonal anti-Flag antibody followed by a peroxidase-conjugated polyclonal goat anti-mouse antibody. The ELISA was developed by an ABTS-substrate solution as described in example 3. The OD-values (Y-axis) were measured at 405 nm by an ELISA-reader. Clone numbers are presented on the X-axis, where the first number of the clone number indicates the round of panning in which the respective clone was obtained, while the second number indicates the respective clone of this round. Periplasmic preparation from cells producing the anti-CD3 scFv L2K was included, as well as the purified anti-CD3 antibodies UCHT1, SP34 and OKT3 (concentration of each 1 µg/ml).
(§2) ELISA experiments were carried out by coating the recombinant CD3 epsilon on wells of 96 well plastic plates (Nunc, maxisorb) typically at 4° C. over night. […] After removal of the blocking solution, PPPs and control solutions were added to the wells and incubated for typically one hour at room temperature. The wells were then washed three times with PBS/0.05% Tween 20. Detection of scFvs and control antibodies bound to immobilized antigen was Carried out using a monoclonal murine anti-His6 or anti FLAG-tag antibody (Qiagen anti-PentaHis and M2 anti Flag Sigma, typically each at a final concentration of 1 µg/ml PBS) detected with a peroxidase-labeled polyclonal goat anti- (mouse Fab-fragment) antibody (Dianova, 1 µg/ml PBS). The signal was developed by adding ABTS substrate solution and measured at a wavelength of 405 nm. Unspecific binding of the test-samples to the blocking agent was examined by carrying out the identical assays with the identical reagents and identical timing on ELISA plates which were not coated but blocked with BSA, only.
(ELISA stands for enzyme-linked immunosorbent assay.)

The target of experiment [1] is T2, human CD3 complex, native, on CD3-positive human T cells (human, UniProt P07766 23-207; P09693 23-182; P04234 22-171).
T2 construct: whole, on cells; Presented as part of the TCR/CD3 complex on Jurkat cells (flow cytometry) and on the CD4-positive T cell clone CB15 (cytotoxicity assays); also called CD3 on Jurkat cells; CD3+ Jurkat cells
In words: conclusion from ELISA (FIGS. 14 and 15) and flow cytometry on Jurkat cells.
Target sequence in this assay (P07766 23-207, chain 1 of 3): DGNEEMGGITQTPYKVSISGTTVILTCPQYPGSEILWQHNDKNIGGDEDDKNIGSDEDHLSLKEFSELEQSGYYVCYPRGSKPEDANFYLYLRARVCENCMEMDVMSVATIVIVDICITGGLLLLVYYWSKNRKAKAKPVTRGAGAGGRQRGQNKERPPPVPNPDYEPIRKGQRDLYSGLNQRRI
Target sequence in this assay (P09693 23-182, chain 2 of 3): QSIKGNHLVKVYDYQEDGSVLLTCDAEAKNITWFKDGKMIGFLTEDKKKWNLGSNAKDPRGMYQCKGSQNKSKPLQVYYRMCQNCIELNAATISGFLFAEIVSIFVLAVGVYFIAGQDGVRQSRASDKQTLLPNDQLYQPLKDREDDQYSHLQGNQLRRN
Target sequence in this assay (P04234 22-171, chain 3 of 3): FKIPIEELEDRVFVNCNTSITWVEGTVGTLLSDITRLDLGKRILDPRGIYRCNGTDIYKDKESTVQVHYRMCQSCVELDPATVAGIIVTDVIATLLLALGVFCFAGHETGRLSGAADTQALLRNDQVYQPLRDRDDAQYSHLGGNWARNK

The target of experiment [2] is T3, recombinant soluble extracellular domain of the human CD3 epsilon chain with His6 tag, expressed alone (human).
T3 construct: also called recombinant CD3-epsilon antigen; rCD3-epsilon
T3 chain: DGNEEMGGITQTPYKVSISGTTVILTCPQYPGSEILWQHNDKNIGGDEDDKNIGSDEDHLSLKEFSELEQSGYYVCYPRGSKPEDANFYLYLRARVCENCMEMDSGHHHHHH
The experiment is described as follows: ELISA on coated recombinant CD3-epsilon, periplasmic preparation, anti-Flag detection. As for the experimental part: as §1, with “14: CD3-specific” for “15:”, “Example” for “example”
as §2

In experiment [3] the target is T2, human CD3 complex, native, on …. The experiment is described as follows: flow cytometry screening on Jurkat cells, periplasmic preparation. The protocol: Periplasmic preparations of soluble scFv protein fragments were added to CD3-positive Jurkat cells. Detection was performed by a 1.0 monoclonal anti-Flag antibody followed by a PE-labeled polyclonal anti-mouse antibody. ScFvs binding to cells was measured by an increase in fluorescence intensity as compared to cells that were incubated with PBS alone: Fluorescence intensity is blotted on the X-axis, the number of events is blotted on the Y-axis. The negative control is shown in black, the respective scFvs are shown in gray. Shifting to the right indicates positive binding to the cells. Periplasmic preparation from cells producing the anti-CD3 scFv L2K was included, as well as the purified anti-CD3 antibodies UCHT1, SP34 and OKT3 (concentration of each 5 µg/ml).
Target sequence in this assay (P09693 23-182, chain 2 of 2): as the sequence (P09693 23-182, chain 2 of 3) above
Target sequence in this assay (P04234 22-171, chain 3 of 2): as the sequence (P04234 22-171, chain 3 of 3) above
A general note: In flow cytometry, cells or beads pass a laser one at a time.

T1 sequence (P02769 25-607 limits assumed): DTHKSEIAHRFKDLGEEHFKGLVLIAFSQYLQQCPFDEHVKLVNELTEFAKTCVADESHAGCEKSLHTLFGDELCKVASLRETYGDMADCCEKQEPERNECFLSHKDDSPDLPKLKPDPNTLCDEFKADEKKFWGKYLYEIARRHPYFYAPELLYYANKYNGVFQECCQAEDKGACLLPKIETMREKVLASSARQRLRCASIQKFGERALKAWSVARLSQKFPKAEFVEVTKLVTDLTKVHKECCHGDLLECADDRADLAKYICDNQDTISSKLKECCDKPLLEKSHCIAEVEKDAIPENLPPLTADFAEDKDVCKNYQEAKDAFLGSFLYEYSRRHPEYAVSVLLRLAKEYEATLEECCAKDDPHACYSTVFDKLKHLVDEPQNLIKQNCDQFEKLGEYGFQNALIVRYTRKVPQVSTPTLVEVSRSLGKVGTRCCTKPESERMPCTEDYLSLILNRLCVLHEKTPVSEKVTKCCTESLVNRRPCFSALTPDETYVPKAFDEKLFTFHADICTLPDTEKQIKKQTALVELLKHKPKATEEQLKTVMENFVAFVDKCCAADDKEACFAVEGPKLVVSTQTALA

B1: human anti-human CD3 scFv 3-106 (FLAG-tagged) (scFv)
scFv: ELQLVESGGGVVQPGRSLRLSCAASGFTFSSYGMHWVRQAPGKGLEWVAVISYDGSNKYYADSVKGRFTISRDNSKNTLYLQMNSLRSEDTAVYYCARLSPYCTNGVCWDAFDIWGQGTMVTVSSGGGGSGGGGSGGGGSELQMTQSPSSLSASVGDRVSITCRASQTISNYLNWYQLKPGKAPKLLIYAASTLQSEVPTRFSGSGSGTDFTLTISGLHPEDFATYYCQQFNSYPRTFGQGTKVEIKTGDYKDDDDK
notes: VH-(G4S1)3-VL scFv from huLIB-ST, tested as crude periplasmic preparation
On to B1, for which the binding result is on record as “no binding” in the experiment with BSA (blocking agent), “binds” in experiment [1] and “binds” in experiment [2].

B2: human anti-human CD3 scFv 4-48 (FLAG-tagged) (scFv)
scFv: ELQLVESGPVLVKPTDTLTLTCTVSGFSLNNPRMGVSWIRQPPGKTLEWLAHIFPSDAKAHSASLKSRLTISKDTSKSQVVPTMTNMDPVDTATYYCARILGEYYPPAWFDPWGQGTLVTVSSGGGGSGGGGSGGGGSELVMTQSPDSLAVSLGERATINCKSSQSVLYSSNNKNYLAWYQQKPGQPPKLLIYWASTRESGVPDRFSGSGSGTDFTLTISSLQAEDVAVYYCQQYLKIPYTFGQGTKVEIKTGDYKDDDDK
notes: VH-(G4S1)3-VL scFv from huLIB-STE, tested as crude periplasmic preparation; also called clone 4-48
With B2, the binding result is recorded as “binds” in experiment [3], “no binding” with BSA (blocking agent) and “binds” in experiment [2].

B3: human anti-human CD3 scFv 3-114 (FLAG-tagged) (scFv)
scFv: ELQLVESGGGLVKPGRSLRLSCTASGFTFGDYAMSWFRQAPGKGLEWVGFIRSKAYGGTTEYAASVKGRFTISRDDSKSIAYLQMNSLKTEDTAVYYCTPQLWLLQDAFDIWGQGTMVTVSSGGGGSGGGGSGGGGSELQMTQSPSSLSASVGDRVTITCRASQGISNYLAWYQQKPGKVPKLLIYAASTLQSGVPSRFSGSGSGTDFTLTISSLQPEDFATYYCQQSYSTPPTFGQGTKLEIKTGDYKDDDDK
notes: as for B1
Turning to B3, the binding result is recorded as “no binding” with BSA (blocking agent), “binds” in experiment [1] and “binds” in experiment [2].

B4: human anti-human CD3 scFv 3-190 (FLAG-tagged) (scFv)
scFv: ELQLVEWGAGLLKPSETLSLTCAVYGGSFSGYYWSWIRQPPGKGLEWIGEINHSGSTNYNPSLKSRVTISVDTSKNQFSLKLSSVTAADTAVYYCARGRGRFLGWLLGGSNWFDPWGQGTLVTVSSGGGGSGGGGSGGGGSELVMTQSPSSLSASVGDRVTITCRASQGISNYLNWYQQKPGKAPKLLIYDASNLETGVPSRFSGSGSGTDFTLTISSLQPEDFATYYCQQSYSTPYTFGQGTKVDIKTGDYKDDDDK
notes: VH-(G4S1)3-VL scFv from huLIB-STE, tested as crude periplasmic preparation
B4: the binding result in experiment [3] was “binds”; in the experiment with BSA (blocking agent), “no binding”; in experiment [2] it was “binds”.

B5: human anti-human CD3 scFv 3-148 (FLAG-tagged) (scFv)
scFv: ELQLVESGPGLVKPSGTLSLTCAVSGGSISSRNWWSWVRQPPGKGLEWIGDIYHSGSTNYNPSLKSRVTISVDKSKNQFSLKLSSVTAADTAVYYCASGYTSCRDAFDIWGQGTMVTVSSGGGGSGGGGSGGGGSELVMTQSPSSLSASVGDRVTITCRASQGIGNYLAWYQQKPGQPPKMLIYWASIRESGVPDRFSGSGSGTDFTLTISSLQAEDVAVYYCQQYYSNPQTFGQGTKVEIKTGDYKDDDDK
notes: as for B1
In the case of B5, the binding result with BSA (blocking agent) is given as “no binding”; in experiment [1], “binds”; in experiment [2], “binds”.

B6: human anti-human CD3 scFv 4-10 (FLAG-tagged) (scFv)
scFv: ELQLVESGGGLVQPGGSLRLSCAASGFTFSSYAMGWVRQAPGKGLEWVSAVSGSGGSTYYADSVKGRFTISRDNSKNTLYLQMNSLRAEDTAVYYCAKAKFLGHYYGMDVWGQGTTVTVSSGGGGSGGGGSGGGGSELQMTQSPSSLSASVGDRVTITCRASQSISSYLNWYQQKPGKAPKLLIYAASSLQSGVPSRFSGSGSGTEFTLTISSLQPEDFATYYCLQHNAYPYTFGQGTKVEIKTGDYKDDDDK
notes: VH-(G4S1)3-VL scFv from huLIB-ST, tested as crude periplasmic preparation; Flag-tag put at the C-terminus because it replaces the vector's His6-tag; also called construct 4-10
On to B6, for which the binding result with BSA (blocking agent) is on record as “no binding”; in experiment [1], “binds”; in experiment [2], “binds”.

B7: human anti-human CD3 scFv 3-271 (FLAG-tagged) (scFv)
scFv: ELQLVEWGAGLLKPSETLSLTCAVYGGSFSGYYWSWIRQPPGKGLEWIGEINHSGSTNYNPSLKSRVTISVDTSKNQFSLKLSSVTAADTAVYYCARGPDRMGHGFDIWGQGTMVTVSSGGGGSGGGGSGGGGSELQMTQSPSSLSASVGDRVTITCRASQSISSYLNWYQQKSGKAPKLLIYAASSLQSGVPSRFSGSGSGTDFTLTISSLQPEDFATYYCQQSYSSPWTFGQGTKVEIKTGDYKDDDDK
notes: as for B4
In the case of B7, the binding result with BSA (blocking agent) is recorded as “no binding”.

B8: human anti-human CD3 scFv 3-550 (FLAG-tagged) (scFv)
scFv: ELQLVESGPGLVKPSQTLSLTCAISGDSVSSNSAAWNWIRQSPSRGLEWLGRTYYRSKWYNDYAVSVKSRITINPDTSKNQFSLQLNSVTPEDTAVYYCARDRRRIAARQYYGMDVWGQGTTVTVSSGGGGSGGGGSGGGGSELVLTQSPGTLSLSPGERATLSCRASQSVSSNYLAWYQQKPGQAPRLLIYGASSRATGIPDRFSGSGSGTDFTLTISSLQPEDVATYYCQKYNSAPLTFGGGTKVEIKTGDYKDDDDK
notes: as for B4
For B8, the binding result in experiment [3] is listed as “binds”; with BSA (blocking agent), “no binding”; in experiment [2] it was “binds”.
